# Data from patent US20130203680A1, “FOLATE CONJUGATES FOR TREATING INFLAMMATION OF THE EYE” (ENDOCYTE, INC., priority 2010, published 2013).
# How the values were obtained:
# [1] = Plasma pharmacokinetics after a single subcutaneous dose of EC0746 or aminopterin
# Protocol: Female Lewis rats with rounded tip jugular vein catheters (Harlan) were fed regular rodent diet and used in this study. The animals were given a single subcutaneous dose of EC0746 at 500 nmol/kg. Whole blood samples (300 μl) were collected from the animals at the following time points: 1 min, 10 min, 30 min, 1 h, 2 h, 3 h, 4 h, and 8 h after injection. The blood samples were placed into anti-coagulant tubes containing 1.7 mg/mL of K3-EDTA and 0.35 mg/mL of N-Maleoyl-beta-alanine (0.35 mg/mL). Plasma samples were obtained by centrifugation for 3 min at ˜2,000 g and stored at −80° C. The amount of EC0746 and its released base drugs (EC0470 & aminopterin) were determined by HPLC using the EC0746 injection solution as the standard (see FIG. 4). […] A similar method was used to determine the plasma pharmacokinetics of aminopterin (see FIG. 5).
# Thus, the plasma concentrations of EC0746 and two primary metabolites, AMT and AMT hydrazide, were determined by LC/MS/MS after a single subcutaneous EC0746 administration. […] For comparison, the pharmacokinetics of subcutaneously dosed AMT (500 nmol/kg) was also examined (FIG. 15b).
# [2] = Maximum tolerated dose in folate-deficient rats; type: in vivo, rat
# Protocol: Healthy rats were administered a subcutaneous injection of the indicated dose of aminopterin or EC0746 biweekly for 2 weeks; control animals, no treatment, 100 nmole/kg aminopterin, 50 nmole/kg aminopterin, 500 nmole/kg EC0746, or 2000 nmole/kg EC0746. The animals were weighed daily. See FIG. 6, Panels A and B. A dose of […] of aminopterin in folate deficient rats is above the MTD; therefore, the projected MTD of EC0746 would be <0.5 μmol/kg based solely on ˜20% free drug release shown in the previous Example. However, the MTD of EC0746 is actually 2.0 μmol/kg, which is equivalent to 0.4 μmol/kg, or ˜8× higher than the MTD for free aminopterin. On a molar basis for total aminopterin, the MTD is 40× higher.
# Since the toxicity of antifolates can be easily masked by rodent diets enriched with folate, healthy rats on a folate-deficient diet (Harlan) were used to determine the maximum-tolerated-dose levels (MTD) of EC0746, AMT and MTX. The animals were given biweekly injections of EC0746, AMT, and MTX for two weeks. The MTD dose was defined as the dose that had caused at least 13-14% weight loss combined with clinical signs of stress and at least one animal in the >MTD dose group needed to be euthanized. Standard hematologic and blood chemistry parameters were examined as needed along with histopathology. The MTDs of EC0746, MTX and AMT were determined to be 2000, 1000, and 50 nmol/kg, respectively. At above the MTD dose level, the main toxicities of EC0746 were similar to those of AMT and MTX, including manifested gastrointestinal distress (diarrhea), swollen muzzle, immunosuppression (bone marrow, thymus), low white-blood-cell count, low platelet count, and infections. […] Overall, EC0746 was approximately 40-fold less toxic than AMT and 2-fold less toxic than MTX on an equimolar basis in these folate-deficient animals; however, its toxicity profile at above MTD levels was not dissimilar from that of AMT and MTX.
# RAW264.7 cells = experiment: XTT cell viability / proliferation of RAW264.7 cells; type: cell-based, murine
# Protocol: (§1) For XTT cell viability and TNF-α inhibition assays, RAW264.7 cells in 96-well plates were treated with vehicle (culture medium) or 10-fold serial dilutions of EC0746 without or with 100-fold excess free folate. After 2 h incubation, the drug-containing media were replaced and the cells were allowed to incubate further for 70 h. Four hours prior to the end of incubation, LPS was added to the treated cells at a final concentration of 100 ng/mL. 100 μL of the culture supernatants were collected for TNF-α analysis using a commercial ELISA kit. See FIG. 2, Panel B. The cell viability was assessed by adding XTT (2,3-bis(2-methoxy-4-nitro-5-sulfo-phenyl)-2H-tetrazolium-5-carboxanilide) to the remaining medium for an additional 4 h following the manufacturer's instructions (Roche Applied Science, Indianapolis, Ind.) See FIG. 2, Panel A. Both results were expressed as % absorbance (minus background) relative to untreated control in triplicates.
# (§2) RAW264.7 cells in 96-well plates were treated with vehicle (culture medium) or 10-fold serial dilutions of EC0932 without or with 100-fold excess free folate. […] The cell viability was assessed by adding XTT (2,3-bis(2-methoxy-4-nitro-5-sulfo-phenyl)-2H-tetrazolium-5-carboxanilide) to the remaining medium for an additional 4 h following the manufacturer's instructions (Roche Applied Science, Indianapolis, Ind.). […]
# [3] = system: LPS-stimulated TNF-α production in RAW264.7 cells; experiment: LPS-stimulated TNF-α production in RAW264.7 cells (ELISA); type: cell-based, murine; details: 72 h incubations
# Protocol: as §1, §2
# Serum protein binding = type: in vitro ADME
# [4] = molecular target: folate receptors (FR-α) of KB cells (Homo sapiens, UniProt P15328); details: FR-α positive, 3H-folic acid
# [5] = molecular target: folate receptors (FR-β) of CHO cells (Homo sapiens, UniProt P14207); details: 3H-folic acid
# Pharmacokinetic analysis = experiment: Pharmacokinetic analysis
# From the text: Table printed on a drawing sheet, Fig. 15C
# Title: Pharmacokinetic analysis
# The patent's description of the figure: FIG. 15. Pharmacokinetics of EC0746 and potential metabolites aminopterin (AMT) and AMT hydrazide (EC0470) in Rats. Panel A. Plasma concentrations (nmol/L) of EC0746, AMT and AMT hydrazide following single subcutaneous EC0746 (500 nmol/kg) administration. Panel B. Plasma concentrations (nmol/L) of AMT following single subcutaneous AMT (500 nmol/kg) administration. c. Pharmacokinetic analysis of the results of (a.) and (b.).
# First reader's note: Each column is an analyte detected in rat plasma after dosing the test compound named in row 1; values are means of n=3.
# DHFR = molecular target: T1, DHFR (Mus musculus, UniProt P00375); experiment: DHFR activity in lysate of treated RAW264.7 cells; type: cell-based, murine; details: 10 μM, 2-h pulse, 22-h chase
# T1 construct: endogenous in cells; host or cells: RAW264.7
# T1 sequence (P00375 1-187): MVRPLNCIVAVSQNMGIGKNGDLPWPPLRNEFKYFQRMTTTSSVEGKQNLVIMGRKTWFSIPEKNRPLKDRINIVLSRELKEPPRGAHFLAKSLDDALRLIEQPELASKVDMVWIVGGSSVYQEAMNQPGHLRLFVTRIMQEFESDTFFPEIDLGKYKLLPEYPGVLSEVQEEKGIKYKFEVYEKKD
# Protocol: RAW264.7 cells were treated with vehicle (medium), EC0746 (100 nM) without or with 100-fold excess free folate, aminopterin (AMT, 100 nM), methotrexate (MTX, 100 nM), or excess free folate alone (10 μM). […] At the end of incubation, the cells were lysed and the DHFR activity in cell lysates was measured using a commercial DHFR assay kit (Sigma-Aldrich, Saint Louis, Mo.).
# [6] = after single s.c. dose of EC0746 500 nmole/kg
# [7] = rat, in vivo, subcutaneous, folate-deficient rats, biweekly injections for two weeks
# Chain of folate receptors (FR-α) of KB cells (P15328 25-234): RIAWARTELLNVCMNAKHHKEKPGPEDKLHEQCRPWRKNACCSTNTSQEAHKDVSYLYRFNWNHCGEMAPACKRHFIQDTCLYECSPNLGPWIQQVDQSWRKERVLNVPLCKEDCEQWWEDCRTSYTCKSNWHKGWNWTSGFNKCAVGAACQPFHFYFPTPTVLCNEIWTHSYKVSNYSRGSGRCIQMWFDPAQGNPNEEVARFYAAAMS
# Chain of folate receptors (FR-β) of CHO cells (P14207 17-230, species assumed): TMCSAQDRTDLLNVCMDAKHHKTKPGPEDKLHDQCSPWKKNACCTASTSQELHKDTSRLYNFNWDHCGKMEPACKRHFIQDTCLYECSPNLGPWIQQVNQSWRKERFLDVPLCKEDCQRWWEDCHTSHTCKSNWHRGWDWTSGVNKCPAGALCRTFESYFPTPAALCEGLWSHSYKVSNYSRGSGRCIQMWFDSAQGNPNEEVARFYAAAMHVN
structure (smiles),measurement,setting,value
"Nc1nc(N)c2nc(CNc3ccc(C(=O)N[C@@H](CCC(=O)O)C(=O)O)cc3)cnc2n1 [aminopterin, reference compound]",elimination half-life of metabolite released from EC0746,"[1]; female, Lewis, rat, in vivo, sc",~117 min
same,delay of plasma peak from the EC0746 Cmax,"[1]; rat, in vivo",30 min
same,MTD,"[2]; folate-deficient rats, biweekly injections for two weeks",50 nmol/kg
"NNC(=O)CC[C@H](NC(=O)c1ccc(NCc2cnc3nc(N)nc(N)c3n2)cc1)C(=O)O [EC0470, aminopterin gamma-hydrazide, reference compound]","cell proliferation in the XTT assay, potency of potential EC0746 metabolites",RAW264.7 cells; 72 h incubations,equally potent
same,"LPS-stimulated TNF-α production, potency of potential EC0746 metabolites",[3],equally potent
same,Tmax of released base drug,[1]; released from EC0746 after single s.c. dose 500 nmol/kg,~1 h
same,delay of plasma peak from the EC0746 Cmax,[1]; released from EC0746 in EC0746-dosed rats,30 min
N=c1[nH]c(N)nc2ncc(CNc3ccc(C(=O)N[C@@H](CCC(=O)NNC(=O)OCCSSC[C@H](NC(=O)[C@H](CCC(=O)NC[C@H](O)[C@@H](O)[C@H](O)[C@H](O)CO)NC(=O)[C@H](CCC(=O)O)NC(=O)[C@H](CCC(=O)NC[C@H](O)[C@@H](O)[C@H](O)[C@H](O)CO)NC(=O)[C@H](CCC(=O)O)NC(=O)[C@H](CCC(=O)NC[C@H](O)[C@@H](O)[C@H](O)[C@H](O)CO)NC(=O)CC[C@H](NC(=O)c4ccc(NCc5cnc6nc(N)[nH]c(=O)c6n5)cc4)C(=O)O)C(=O)O)C(=O)O)cc3)nc12 [EC0746],EC50,RAW264.7 cells; 2 hour treatment followed by 72 hours in treatment-free medium,0.33 nM
same,Area Under Curve for free drug,[1]; [6],7.3 nmol·min/mL
same,Cmax for free drug (aminopterin+aminopterin hydrazide),[1]; [6],34 nmol/L
same,Cmax for free drug as share of the total,[1]; [6],9.6%
same,time at which Cmax for free drug (aminopterin+aminopterin hydrazide) is reached,[1]; [6],60 min
same,half-life,"[1]; female, Lewis, rat, in vivo, sc, 500 nmol/kg",~35 min
same,Cmax,"[1]; female, Lewis, rat, in vivo, sc, 500 nmole/kg",321 nM
same,bioavailability after subcutaneous administration,"[1]; rats, s.c.",bioavailable
same,Area Under Curve for EC0746,[1]; single s.c. dose of EC0746 500 nmole/kg,32.5 nmol·min/mL
same,fraction unbound,Serum protein binding,~0.54
same,fold less toxic than AMT on an equimolar basis,[2]; folate-deficient animals,approximately 40 fold
same,fold less toxic than MTX on an equimolar basis,[2]; folate-deficient animals,~2 fold
same,MTD (free drug equivalent) fold higher than the MTD for free aminopterin,"[2]; rat, in vivo",~8 ×
same,MTD fold higher than aminopterin on a molar basis for total aminopterin,"[2]; rat, in vivo",40 ×
same,MTD at 2 weeks,"[2]; rat, in vivo, sc, s.c. biweekly for 2 weeks",2 µmol/kg
same,MTD at 2 weeks,[2]; [7],2 µmol/kg
same,gastrointestinal-associated toxicities at MTD dose,"[2]; rats, at MTD",less gastrointestinal-associated toxicities than AMT and MTX
same,relative folate receptor affinity (folic acid = 1),[4],0.50
same,relative folate receptor affinity (folic acid = 1),[5],0.270
Nc1nc(N)c2nc(CNc3ccc(C(=O)N[C@@H](CCC(=O)O)C(=O)O)cc3)cnc2n1 [AMT | AMT],AUC0-t |,Pharmacokinetic analysis,61.3 nmol/min/mL
same,CL or CL_F |,Pharmacokinetic analysis,1.7 mL/min
same,Cmax |,Pharmacokinetic analysis,601 nmol/L
same,T1/2(elimination) | min,Pharmacokinetic analysis,140 min
same,Tmax | min,Pharmacokinetic analysis,30 min
same,Vz or Vz_F | mL,Pharmacokinetic analysis,328 mL
Nc1nc2ncc(CNc3ccc(C(=O)N[C@@H](CCC(=O)O)C(=O)O)cc3)nc2c(=O)[nH]1 [folic acid],effect of folic acid alone on DHFR activity,DHFR,did not have any impact
"CN(Cc1cnc2nc(N)nc(N)c2n1)c1ccc(C(=O)N[C@@H](CCC(=O)O)C(=O)O)cc1 [methotrexate, reference compound]",MTD at 2 weeks,[2]; [7],1 µmol/kg
same,relative folate receptor affinity (folic acid = 1),[4],0.018
same,relative folate receptor affinity (folic acid = 1),[5],0.005
